Holding throughout (experiment): flow cytometry, alanine-scan library in HEK-293T
(In flow cytometry, cells or beads pass a laser one at a time.)

For one assay, the target named is T1, hsGLUT4 G65A (human, UniProt P14672 1-509).
T1 sequence: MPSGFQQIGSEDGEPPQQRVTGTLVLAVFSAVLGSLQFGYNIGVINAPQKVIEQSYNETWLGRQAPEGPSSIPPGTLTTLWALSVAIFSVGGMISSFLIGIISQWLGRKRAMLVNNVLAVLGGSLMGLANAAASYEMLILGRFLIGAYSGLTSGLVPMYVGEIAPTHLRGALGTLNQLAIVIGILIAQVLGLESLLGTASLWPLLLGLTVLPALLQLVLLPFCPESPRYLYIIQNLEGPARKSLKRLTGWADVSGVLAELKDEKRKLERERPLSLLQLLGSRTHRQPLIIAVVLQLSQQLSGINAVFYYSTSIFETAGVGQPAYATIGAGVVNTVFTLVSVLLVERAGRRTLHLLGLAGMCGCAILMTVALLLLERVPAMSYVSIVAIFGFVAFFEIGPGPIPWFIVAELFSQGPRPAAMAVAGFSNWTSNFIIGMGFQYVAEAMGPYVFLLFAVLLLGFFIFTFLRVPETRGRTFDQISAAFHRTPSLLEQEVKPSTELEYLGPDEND
An outline of the steps:
(§1)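 HEK-293T cells expressing individual GLUT4 alanine mutants were stained 48 h post-transfection with anti-GLUT4 scFv MAbs (2 μg/ml), then biotinylated secondary and streptavidin-PerCP, and read by high-throughput flow cytometry. Where used, cytochalasin B (10 uM final) was given for 30 min before and during primary antibody staining.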

A further assay addresses T2, hsGLUT4 P66A (human, UniProt P14672 1-509).
T2 sequence: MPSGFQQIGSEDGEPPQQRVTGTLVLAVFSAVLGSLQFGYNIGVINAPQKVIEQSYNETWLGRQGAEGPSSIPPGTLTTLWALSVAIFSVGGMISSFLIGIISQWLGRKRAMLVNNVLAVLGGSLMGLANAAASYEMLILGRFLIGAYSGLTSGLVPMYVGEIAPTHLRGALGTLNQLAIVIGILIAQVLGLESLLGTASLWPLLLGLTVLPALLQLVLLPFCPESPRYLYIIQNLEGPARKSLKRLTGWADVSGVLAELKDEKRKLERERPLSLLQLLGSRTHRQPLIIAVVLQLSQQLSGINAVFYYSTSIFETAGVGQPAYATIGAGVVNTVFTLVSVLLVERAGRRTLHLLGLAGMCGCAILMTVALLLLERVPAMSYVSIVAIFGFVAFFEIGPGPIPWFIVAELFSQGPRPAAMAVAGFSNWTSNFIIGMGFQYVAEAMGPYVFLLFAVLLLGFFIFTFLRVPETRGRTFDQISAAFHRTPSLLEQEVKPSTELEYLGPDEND
An outline of the steps:
as §1

A further assay concerns the target T3, hsGLUT4 R265A (human, UniProt P14672 1-509).
T3 sequence: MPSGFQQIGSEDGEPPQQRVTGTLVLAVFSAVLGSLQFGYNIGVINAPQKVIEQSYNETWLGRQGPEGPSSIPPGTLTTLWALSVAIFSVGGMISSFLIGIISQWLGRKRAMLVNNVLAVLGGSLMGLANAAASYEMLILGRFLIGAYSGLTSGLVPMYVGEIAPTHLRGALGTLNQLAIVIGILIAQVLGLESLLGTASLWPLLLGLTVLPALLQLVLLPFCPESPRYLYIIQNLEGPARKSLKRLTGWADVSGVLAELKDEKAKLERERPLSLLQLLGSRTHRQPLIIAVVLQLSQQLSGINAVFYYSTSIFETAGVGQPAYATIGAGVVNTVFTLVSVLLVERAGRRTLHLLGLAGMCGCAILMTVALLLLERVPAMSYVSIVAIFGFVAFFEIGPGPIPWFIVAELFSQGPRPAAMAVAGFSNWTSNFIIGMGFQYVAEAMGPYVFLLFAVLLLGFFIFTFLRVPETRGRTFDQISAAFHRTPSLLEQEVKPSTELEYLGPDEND
An outline of the steps: as §1

In the next assay the target is T4, hsGLUT4 G356A (human, UniProt P14672 1-509).
T4 sequence: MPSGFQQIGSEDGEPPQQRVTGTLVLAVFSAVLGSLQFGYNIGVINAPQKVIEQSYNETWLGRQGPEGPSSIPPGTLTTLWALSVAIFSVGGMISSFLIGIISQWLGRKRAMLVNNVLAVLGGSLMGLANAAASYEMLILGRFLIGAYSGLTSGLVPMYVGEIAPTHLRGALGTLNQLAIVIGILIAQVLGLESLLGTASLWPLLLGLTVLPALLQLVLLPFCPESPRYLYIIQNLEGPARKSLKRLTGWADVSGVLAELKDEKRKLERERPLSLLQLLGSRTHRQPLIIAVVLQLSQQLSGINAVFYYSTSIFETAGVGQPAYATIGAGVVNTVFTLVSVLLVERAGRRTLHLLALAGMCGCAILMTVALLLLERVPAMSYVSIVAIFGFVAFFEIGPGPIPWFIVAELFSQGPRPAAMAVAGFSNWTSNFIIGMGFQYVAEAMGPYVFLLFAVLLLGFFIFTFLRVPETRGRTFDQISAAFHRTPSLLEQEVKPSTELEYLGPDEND
In outline:
as §1

As for 1F8 (antibody), the % of binding to wild type GLUT4 in the assay with hsGLUT4 G65A stood at 95%; with hsGLUT4 P66A, 78%; in the assay with hsGLUT4 R265A it was 101%; with hsGLUT4 G356A, 90%.

B1: AB108 (Fc fusion)
scFv: ALTQPSSVSANLGGTVKITCSGSSGSYGWYQQKAPGSAPVTLIYRNDKRPSDIPSRFSGSESGSTGTLTITGVQAEDEAVYFCGGYDSSAGYAAFGAGTTLTVLGQSSRSSGGGGSSGGGGSAVTLDESGGGLQTPGGALSLVCKASGFTFSSHGMGWVRQAPGKGLEWVGSISTGRYTFYAPAVKGRATISRDNGQSTLRLQLNNLRAEDTGTYYCTKCAGLNGCGGGEIDAWGHGTEVIVSS
notes: Bivalent scFv-Fc; also called MAb AB108; not shown: Fc fragment of human IgG1, cloned in frame with the scFv
On to B1, for which the “% of binding to wild type GLUT4” value in the assay with hsGLUT4 G65A was determined as 1%; with hsGLUT4 P66A it was 11%; with hsGLUT4 R265A it was 111%; with hsGLUT4 G356A, 19%.

B2: AB101 (scFv)
scFv: ALTQPSSVSANPGETVKITCSGSSNSYGWYQQKSPGSAPVTVIYYNDKRPSDIPSRFSGSKSDSTHTLTITGVRAEDEAVYFCGSYDSTYVGIFGAGTTLTVLGQSSRSSGGGGSSGGGGSAVTLDESGGGLQTPGGTLSLVCKASGFTFSSNAMGWVRQAPGKGLEWVAGISSDGRYTKYGSAVKGRATISRDNGQSTVRLQLNNLRAEDTGTYFCAKAFGNNYRRIYAGQIDAWGHGTEVIVSS
notes: Chicken-derived clone used as a control; the four lead clones were tested as scFv-human IgG1 Fc; also called MAb AB101
For the molecule B2, the “% of binding to wild type GLUT4” value with hsGLUT4 G65A was 87%; in the assay with hsGLUT4 P66A, 91%; with hsGLUT4 R265A, 91%; with hsGLUT4 G356A, 46%.

B3: AB111 (Fc fusion)
scFv: ALTQPSSVSANPGETVKITCSGSGSWYGWFQQKSPGSAPVTVIYSNDKRPSDIPSRFSGSKSGSTSTLTITGVQVEDEAVYYCGNWDIFGAGTTLTVLGQSSRSSGGGGSSGGGGSAVTLDESGGGLQTPGGALSLVCKASGFTFSSHGMGWVRQAPGKGLEWVASISTGRYTFYAPAVKGRATISRDNGQSTVRLQLNNLRAEDTATYYCTKCAGLNGCGGGEIDAWGHGTEVIVSS
notes: Bivalent scFv-Fc; also called MAb AB111; not shown: Fc fragment of human IgG1, cloned in frame with the scFv
With B3, the % of binding to wild type GLUT4 with hsGLUT4 G65A is 15%; with hsGLUT4 P66A, 90%; with hsGLUT4 R265A, 143%; with hsGLUT4 G356A, 137%.
